Molecular target: T1, Strep-Opa1 (s-Opa1, amino acids 253-960), expressed in P. pastoris (human, UniProt O60313 253-960)
T1 construct: Opa1 (optic atrophy 1), human, residues 253-960 (s-Opa1); N-terminal Twin-Strep tag, HRV 3C cleavage site and (G4S)3 linker; The methods also name a tagged Opa1(263-960); also called optic atrophy 1; Opa1(253-960); source: P. pastoris SMD1163, in GDN extract (lysate); purified as a complex with SLC25A46 for cross-linking; not shown: Twin-Strep, N-terminal, kept
T1 sequence (looked up): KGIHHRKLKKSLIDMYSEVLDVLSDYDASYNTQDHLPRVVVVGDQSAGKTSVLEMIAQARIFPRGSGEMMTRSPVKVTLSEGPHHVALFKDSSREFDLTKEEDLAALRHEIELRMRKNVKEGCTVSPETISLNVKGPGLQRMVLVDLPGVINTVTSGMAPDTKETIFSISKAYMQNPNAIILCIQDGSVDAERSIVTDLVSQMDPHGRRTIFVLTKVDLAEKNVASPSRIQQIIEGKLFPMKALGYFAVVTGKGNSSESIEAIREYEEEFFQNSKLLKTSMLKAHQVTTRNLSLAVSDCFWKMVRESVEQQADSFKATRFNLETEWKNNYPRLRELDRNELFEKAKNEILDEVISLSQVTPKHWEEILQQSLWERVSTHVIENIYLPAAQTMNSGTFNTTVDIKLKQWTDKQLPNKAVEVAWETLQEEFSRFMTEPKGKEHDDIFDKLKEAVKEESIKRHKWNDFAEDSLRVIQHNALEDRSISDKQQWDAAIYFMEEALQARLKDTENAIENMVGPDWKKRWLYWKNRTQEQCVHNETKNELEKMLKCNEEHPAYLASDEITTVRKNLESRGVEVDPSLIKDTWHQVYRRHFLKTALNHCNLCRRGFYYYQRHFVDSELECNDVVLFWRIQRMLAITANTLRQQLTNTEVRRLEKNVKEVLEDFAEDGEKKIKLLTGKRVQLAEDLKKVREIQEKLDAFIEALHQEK
Assay: pull-down; GDN extracts of P. pastoris expressing or coexpressing the proteins; Strep-tagged Opa1 or Mfn2 held on StrepTactin XT 4Flow resin in a spin column, 4 °C, 25 mM Hepes, 150 mM NaCl, pH 8.0, washes with 0.1% GDN, elution with 50 mM biotin; Western blot; also with GTPγS, GMPPCP or GDP added to the lysates (no effect on coelution)
Conditions: partners not purified

binding result: binds
B1: Solute carrier family 25 member A46 with C-terminal deca-histidine (SLC25A46-His), wild type (natural protein, human, UniProt Q96AG3 1-418, looked up)
chain: MHPRRPDGFDGLGYRGGARDEQGFGGAFPARSFSTGSDLGHWVTTPPDIPGSRNLHWGEKSPPYGVPTTSTPYEGPTEEPFSSGGGGSVQGQSSEQLNRFAGFGIGLASLFTENVLAHPCIVLRRQCQVNYHAQHYHLTPFTVINIMYSFNKTQGPRALWKGMGSTFIVQGVTLGAEGIISEFTPLPREVLHKWSPKQIGEHLLLKSLTYVVAMPFYSASLIETVQSEIIRDNTGILECVKEGIGRVIGMGVPHSKRLLPLLSLIFPTVLHGVLHYIISSVIQKFVLLILKRKTYNSHLAESTSPVQSMLDAYFPELIANFAASLCSDVILYPLETVLHRLHIQGTRTIIDNTDLGYEVLPINTQYEGMRDCINTIRQEEGVFGFYKGFGAVIIQYTLHAAVLQITKIIYSTLLQNNI
notes: SLC25A46, human; gene synthesized (GenScript), cloned into pPICZ A; C terminus fused to (G4S)3 linker, TEV cleavage site and deca-histidine; only a pPICZ A (P. pastoris) construct of SLC25A46 is described; also called WT SLC25A46; source: P. pastoris SMD1163, in GDN extract (lysate); also recombinantly expressed and purified; not shown: His10, C-terminal, kept

Reference: PMC11459905, “Identification of SLC25A46 interaction interfaces with mitochondrial membrane fusogens Opa1 and Mfn2” (The Journal of Biological Chemistry, 2024)
